According to article PMC5889621 (Proceedings of the National Academy of Sciences of the …, 2018):
Several values for one entry are separate records, joined by “and”; a condition that tells them apart may be missing. Equal values may be shown once.

T1: LMAN1/ERGIC53 (endogenous) (human (endogenous in 293A)), P49257
T1 chain: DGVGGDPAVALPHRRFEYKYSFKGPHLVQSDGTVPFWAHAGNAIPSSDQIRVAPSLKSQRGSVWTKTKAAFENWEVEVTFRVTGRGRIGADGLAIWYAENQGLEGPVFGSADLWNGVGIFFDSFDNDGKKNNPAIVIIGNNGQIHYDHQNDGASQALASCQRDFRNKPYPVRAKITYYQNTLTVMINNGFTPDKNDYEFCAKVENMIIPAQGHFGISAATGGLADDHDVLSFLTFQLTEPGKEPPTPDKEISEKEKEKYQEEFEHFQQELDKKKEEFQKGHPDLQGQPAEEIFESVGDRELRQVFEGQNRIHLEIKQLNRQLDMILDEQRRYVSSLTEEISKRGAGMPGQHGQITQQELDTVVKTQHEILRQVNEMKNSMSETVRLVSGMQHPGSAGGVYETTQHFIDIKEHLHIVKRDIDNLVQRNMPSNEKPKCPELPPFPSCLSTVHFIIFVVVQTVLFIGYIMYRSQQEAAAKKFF


Legend:
[1] = target: T1, LMAN1/ERGIC53 (endogenous) (human …); experiment: SDS/PAGE without reducing agent and immunoblot; settings: remark: other sources report otherwise
[2] = target: the molecule itself; experiment: SDS/PAGE without reducing agent and immunoblot

Row | stoichiometry N [1] | Binder | stoichiometry N [2]
1 | 2 and 6 | LMAN1/ERGIC53 (endogenous), P49257 31-510 (natural protein) DGVGGDPAVALPHRRFEYKYSFKGPHLVQSDGTVPFWAHAGNAIPSSDQIRVAPSLKSQRGSVWTKTKAAFENWEVEVTFRVTGRGRIGADGLAIWYAENQGLEGPVFGSADLWNGVGIFFDSFDNDGKKNNPAIVIIGNNGQIHYDHQNDGASQALASCQRDFRNKPYPVRAKITYYQNTLTVMINNGFTPDKNDYEFCAKVENMIIPAQGHFGISAATGGLADDHDVLSFLTFQLTEPGKEPPTPDKEISEKEKEKYQEEFEHFQQELDKKKEEFQKGHPDLQGQPAEEIFESVGDRELRQVFEGQNRIHLEIKQLNRQLDMILDEQRRYVSSLTEEISKRGAGMPGQHGQITQQELDTVVKTQHEILRQVNEMKNSMSETVRLVSGMQHPGSAGGVYETTQHFIDIKEHLHIVKRDIDNLVQRNMPSNEKPKCPELPPFPSCLSTVHFIIFVVVQTVLFIGYIMYRSQQEAAAKKFF | –
2 | – | Myc-LMAN1 C475A (natural protein, UniProt P49257 31-510, looked up) DGVGGDPAVALPHRRFEYKYSFKGPHLVQSDGTVPFWAHAGNAIPSSDQIRVAPSLKSQRGSVWTKTKAAFENWEVEVTFRVTGRGRIGADGLAIWYAENQGLEGPVFGSADLWNGVGIFFDSFDNDGKKNNPAIVIIGNNGQIHYDHQNDGASQALASCQRDFRNKPYPVRAKITYYQNTLTVMINNGFTPDKNDYEFCAKVENMIIPAQGHFGISAATGGLADDHDVLSFLTFQLTEPGKEPPTPDKEISEKEKEKYQEEFEHFQQELDKKKEEFQKGHPDLQGQPAEEIFESVGDRELRQVFEGQNRIHLEIKQLNRQLDMILDEQRRYVSSLTEEISKRGAGMPGQHGQITQQELDTVVKTQHEILRQVNEMKNSMSETVRLVSGMQHPGSAGGVYETTQHFIDIKEHLHIVKRDIDNLVQRNMPSNEKPKCPELPPFPSALSTVHFIIFVVVQTVLFIGYIMYRSQQEAAAKKFF | 2
3 | – | Myc-LMAN1 C466A C475A double mutant (natural protein, UniProt P49257 31-510, looked up) DGVGGDPAVALPHRRFEYKYSFKGPHLVQSDGTVPFWAHAGNAIPSSDQIRVAPSLKSQRGSVWTKTKAAFENWEVEVTFRVTGRGRIGADGLAIWYAENQGLEGPVFGSADLWNGVGIFFDSFDNDGKKNNPAIVIIGNNGQIHYDHQNDGASQALASCQRDFRNKPYPVRAKITYYQNTLTVMINNGFTPDKNDYEFCAKVENMIIPAQGHFGISAATGGLADDHDVLSFLTFQLTEPGKEPPTPDKEISEKEKEKYQEEFEHFQQELDKKKEEFQKGHPDLQGQPAEEIFESVGDRELRQVFEGQNRIHLEIKQLNRQLDMILDEQRRYVSSLTEEISKRGAGMPGQHGQITQQELDTVVKTQHEILRQVNEMKNSMSETVRLVSGMQHPGSAGGVYETTQHFIDIKEHLHIVKRDIDNLVQRNMPSNEKPKAPELPPFPSALSTVHFIIFVVVQTVLFIGYIMYRSQQEAAAKKFF | 2
4 | – | Myc-LMAN1 C466A (natural protein, UniProt P49257 31-510, looked up) DGVGGDPAVALPHRRFEYKYSFKGPHLVQSDGTVPFWAHAGNAIPSSDQIRVAPSLKSQRGSVWTKTKAAFENWEVEVTFRVTGRGRIGADGLAIWYAENQGLEGPVFGSADLWNGVGIFFDSFDNDGKKNNPAIVIIGNNGQIHYDHQNDGASQALASCQRDFRNKPYPVRAKITYYQNTLTVMINNGFTPDKNDYEFCAKVENMIIPAQGHFGISAATGGLADDHDVLSFLTFQLTEPGKEPPTPDKEISEKEKEKYQEEFEHFQQELDKKKEEFQKGHPDLQGQPAEEIFESVGDRELRQVFEGQNRIHLEIKQLNRQLDMILDEQRRYVSSLTEEISKRGAGMPGQHGQITQQELDTVVKTQHEILRQVNEMKNSMSETVRLVSGMQHPGSAGGVYETTQHFIDIKEHLHIVKRDIDNLVQRNMPSNEKPKAPELPPFPSCLSTVHFIIFVVVQTVLFIGYIMYRSQQEAAAKKFF | 2
